In patent USRE47150 (Bayer, dated 2018):
Substitutions are numbered along the chain they refer to. In names and notes the source's numbering stands.

T1: mouse tissue factor pathway inhibitor (TFPI) (mouse, UniProt O54819 29-289, limits assumed)
T1 construct: bought; also called mTFPI; murine TFPI
T1 sequence (looked up): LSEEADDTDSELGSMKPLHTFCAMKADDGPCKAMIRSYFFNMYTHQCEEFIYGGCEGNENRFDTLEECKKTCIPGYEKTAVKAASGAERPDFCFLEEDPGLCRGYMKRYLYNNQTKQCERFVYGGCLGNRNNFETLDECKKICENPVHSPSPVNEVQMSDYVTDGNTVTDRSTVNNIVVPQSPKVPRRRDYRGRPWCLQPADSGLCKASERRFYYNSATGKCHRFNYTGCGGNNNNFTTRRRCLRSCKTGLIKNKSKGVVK

T2: human tissue factor pathway inhibitor (TFPI) (human, UniProt P10646 29-304, limits assumed)
T2 construct: bought; also called hTFPI; human TFPI
T2 sequence (looked up): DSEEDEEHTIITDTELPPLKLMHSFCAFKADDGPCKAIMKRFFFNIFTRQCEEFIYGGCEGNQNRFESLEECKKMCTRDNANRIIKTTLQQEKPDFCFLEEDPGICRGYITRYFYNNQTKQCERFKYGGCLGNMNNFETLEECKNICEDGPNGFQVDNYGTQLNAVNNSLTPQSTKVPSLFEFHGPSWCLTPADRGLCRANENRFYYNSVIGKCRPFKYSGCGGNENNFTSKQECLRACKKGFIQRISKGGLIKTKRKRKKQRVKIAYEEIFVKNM

B1: 4B7 HC N32D+D62Q+Y112D/LC S32R+D33R+N35I (Fab, V domains shown)
VH: QVQLQQSGPGLVKPSQTLSLTCAISGDSVSSDSAAWSWIRQSPGRGLEWLGIIYKRSKWYNQYAVSVKSRITINPDTSKNQFSLQLNSVTPEDTAVYYCARWHSDKHWGFDDWGQGTLVTVSS
VL: DIVMTQSPLSLPVTPGEPASISCRSSQSLVFRRGITYLNWYLQKPGQSPQLLIYKGSNRASGVPDRFSGSGSGTDFTLKISRVEAEDVGVYYCQQYDSYPLTFGQGTKVEIKR
B2: 4B7 HC N32D+D62R+H107M+Y112D/LC F31M+S32R+D33R (Fab, V domains shown)
VH: B1 VH with Q62R, H107M
VL: B1 VL with F31M, I35N
B3: 4B7 HC N32D+D62R+H107M+Y112D/LC S32R+N35T (Fab, V domains shown)
VH: B1 VH with Q62R, H107M
VL: B1 VL with R33D, I35T
B4: 4B7 HC N32D+D62R+H107M+Y112D/LC D33F+N35T+Y37F (Fab, V domains shown)
VH: B1 VH with Q62R, H107M
VL: B1 VL with R32S, R33F, I35T, Y37F
B5: 4B7 HC N32D+D62R+H107M+Y112D/LC F31I+S32R+D33F+N35I+D97T (Fab, V domains shown)
VH: B1 VH with Q62R, H107M
VL: B1 VL with F31I, R33F, D97T
B6: 4B7 HC N32D+D62R+Y112D/LC F31Y+S32R+D33F+N35I+D97T (Fab, V domains shown)
VH: B1 VH with Q62R
VL: B1 VL with F31Y, R33F, D97T
B7: 4B7 HC N32D+D62R+Y112D/LC F31I+D33F+N35I+D97T (Fab, V domains shown)
VH: B1 VH with Q62R
VL: B1 VL with F31I, R32S, R33F, D97T
B8: 4B7 HC N32D+D62R+Y112D/LC F31M+S32R+D33R+N35I (Fab, V domains shown)
VH: B1 VH with Q62R
VL: B1 VL with F31M
B9: 4B7 HC N32D+D62R+H107M+Y112D/LC F31M+S32L+D33R+N35I+D97T (Fab, V domains shown)
VH: B1 VH with Q62R, H107M
VL: B1 VL with F31M, R32L, D97T
B10: 4B7 HC N32D+D62R+H103D/LC F31I+D33R (Fab, V domains shown)
VH: B1 VH with Q62R, H103D, D112Y
VL: B1 VL with F31I, R32S, I35N
B11: 4B7 HC N32D+D62R+H107M/LC S32R+D33R+N35I (Fab, V domains shown)
VH: B1 VH with Q62R, H107M, D112Y
VL: B1 VL
B12: 4B7 HC N32D+D62R+H103D+H107M+Y112D/LC S32R (Fab, V domains shown)
VH: B1 VH with Q62R, H103D, H107M
VL: B1 VL with R33D, I35N
B13: 4B7 HC N32D+D62R+H107M+Y112D/LC D33R (Fab, V domains shown)
VH: B1 VH with Q62R, H107M
VL: B1 VL with R32S, I35N
B14: 4B7 HC N32D+D62Q+Y112D/LC S32R+D33R+N35I+D97T (Fab, V domains shown)
VH: B1 VH
VL: B1 VL with D97T
B15: 4B7 HC N32D+D62R+H107M+Y112D/LC F31I+S32R+D33F+N35T (Fab, V domains shown)
VH: B1 VH with Q62R, H107M
VL: B1 VL with F31I, R33F, I35T
B16: 4B7 HC N32D+D62R+H107M+Y112D/LC F31M+S32R+D33R+N35T (Fab, V domains shown)
VH: B1 VH with Q62R, H107M
VL: B1 VL with F31M, I35T
B17: 4B7 HC N32D+D62R+H107M+Y112D/LC S32R+D33F+N35T (Fab, V domains shown)
VH: B1 VH with Q62R, H107M
VL: B1 VL with R33F, I35T
B18: 4B7 HC N32D+D62R+Y112D/LC F31H+S32R+D33F+N35I+D97T (Fab, V domains shown)
VH: B1 VH with Q62R
VL: B1 VL with F31H, R33F, D97T
B19: 4B7 HC N32D+D62R+H107M+Y112D/LC F31I+S32R+N35I+D97T (Fab, V domains shown)
VH: B1 VH with Q62R, H107M
VL: B1 VL with F31I, R33D, D97T
B20: 4B7 HC N32D+D62R+H107M+Y112D/LC D33R+N35T (Fab, V domains shown)
VH: B1 VH with Q62R, H107M
VL: B1 VL with R32S, I35T
B21: 4B7 HC N32D+D62R+H107M+Y112D/LC F31I+N35I (Fab, V domains shown)
VH: B1 VH with Q62R, H107M
VL: B1 VL with F31I, R32S, R33D
B22: 4B7 HC N32D+D62R+H107M+Y112D/LC F31M+S32R+D33F+D97T (Fab, V domains shown)
VH: B1 VH with Q62R, H107M
VL: B1 VL with F31M, R33F, I35N, D97T
B23: 4B7 HC N32D+D62Q+Y112D/LC V30L+F31I+D33F+N35I (Fab, V domains shown)
VH: B1 VH
VL: B1 VL with V30L, F31I, R32S, R33F
B24: 4B7 HC N32D+D62R+H103D+H107M+Y112D/LC S32R+N35T (Fab, V domains shown)
VH: B1 VH with Q62R, H103D, H107M
VL: B1 VL with R33D, I35T
B25: 4B7 HC N32D+D62R+Y112D/LC D33F+N35I+D97T (Fab, V domains shown)
VH: B1 VH with Q62R
VL: B1 VL with R32S, R33F, D97T
B26: 4B7 HC N32D+D62R+H107M+Y112D/LC F31I+D33R+N35I (Fab, V domains shown)
VH: B1 VH with Q62R, H107M
VL: B1 VL with F31I, R32S
B27: 4B7 HC N32D+D62R+H107M+Y112D/LC F31M+D33F+N35I (Fab, V domains shown)
VH: B1 VH with Q62R, H107M
VL: B1 VL with F31M, R32S, R33F
B28: 4B7 HC N32D+D62R+Y112D/LC M4I+S32R+D33F+N35I+D97T (Fab, V domains shown)
VH: B1 VH with Q62R
VL: B1 VL with M4I, R33F, D97T
B29: 4B7 HC N32D+D62R+Y112D/LC D33R+N35I (Fab, V domains shown)
VH: B1 VH with Q62R
VL: B1 VL with R32S
B30: 4B7 HC N32D+D62R+H107M+Y112D/LC F31M+S32R+D33R+N35I+D97T (Fab, V domains shown)
VH: B1 VH with Q62R, H107M
VL: B1 VL with F31M, D97T
B31: 4B7 HC N32D+D62R+H107M+Y112D/LC F31M+S32R+D33F+N35I (Fab, V domains shown)
VH: B1 VH with Q62R, H107M
VL: B1 VL with F31M, R33F
B32: 4B7 HC N32D+D62R+H107M+Y112D/LC F31M+D33F+N35T (Fab, V domains shown)
VH: B1 VH with Q62R, H107M
VL: B1 VL with F31M, R32S, R33F, I35T
B33: 4B7 HC N32D+D62R+H107M+Y112D/LC F31M+D33R+N35I (Fab, V domains shown)
VH: B1 VH with Q62R, H107M
VL: B1 VL with F31M, R32S
B34: 4B7 HC N32D+D62R+H107M+Y112D/LC S32R+N35T+D97T (Fab, V domains shown)
VH: B1 VH with Q62R, H107M
VL: B1 VL with R33D, I35T, D97T
B35: 4B7 HC N32D+D62R+H107M+Y112D/LC F31I+D33R (Fab, V domains shown)
VH: B1 VH with Q62R, H107M
VL: B1 VL with F31I, R32S, I35N
B36: 4B7 HC N32D+D62R+H107M+Y112D/LC D33R+N35I+D97T (Fab, V domains shown)
VH: B1 VH with Q62R, H107M
VL: B1 VL with R32S, D97T
B37: 4B7 HC N32D+D62R+H107M+Y112D/LC F31M+D33R (Fab, V domains shown)
VH: B1 VH with Q62R, H107M
VL: B1 VL with F31M, R32S, I35N

target: T1, mouse tissue factor pathway inhibitor …; assay: competitive ELISA

variant/HC_D62R | Binder
23.5 ratio | B1
13.9 ratio | B2
29.3 ratio | B3
57.5 ratio | B4
20.6 ratio | B5
39.7 ratio | B6
11.9 ratio | B7
11.2 ratio | B8
26.7 ratio | B9
14.6 ratio | B10
16.1 ratio | B11
16 ratio | B12
20.3 ratio | B13
13.4 ratio | B14
19.7 ratio | B15
18.7 ratio | B16
44.1 ratio | B17
15.2 ratio | B18
8.7 ratio | B19

variant/HC_D62R | Binder
29.3 ratio | B20
30 ratio | B21
16.5 ratio | B22
24.6 ratio | B23
18.4 ratio | B24
15.9 ratio | B25
43 ratio | B26
46.8 ratio | B27
12 ratio | B28
19.5 ratio | B29
9.6 ratio | B30
32.3 ratio | B31
34.3 ratio | B32
23 ratio | B33
15.8 ratio | B34
27.9 ratio | B35
28.1 ratio | B36
24.6 ratio | B37

target: T2, human tissue factor pathway inhibitor …; assay: competitive ELISA

variant/HC_D62R | Binder
21.4 ratio | B1
18.6 ratio | B2
25.3 ratio | B3
35.7 ratio | B4
28.7 ratio | B5
27.9 ratio | B6
23.3 ratio | B7
15.8 ratio | B8
32.2 ratio | B9
13.6 ratio | B10
12.9 ratio | B11
17.7 ratio | B12
25.3 ratio | B13
17.2 ratio | B14
29.5 ratio | B15
17 ratio | B16
29.2 ratio | B17
22.1 ratio | B18
18.2 ratio | B19

variant/HC_D62R | Binder
28.2 ratio | B20
28.8 ratio | B21
21.9 ratio | B22
22.9 ratio | B23
14 ratio | B24
25.5 ratio | B25
29.8 ratio | B26
28.4 ratio | B27
19.3 ratio | B28
22.9 ratio | B29
16.9 ratio | B30
27 ratio | B31
29.9 ratio | B32
21.3 ratio | B33
27.7 ratio | B34
30.1 ratio | B35
29.1 ratio | B36
26.9 ratio | B37
